Laboratory results: article PMC10359466, “Identification of a small-molecule inhibitor that selectively blocks DNA-binding by Trypanosoma brucei replication protein A1” (Nature Communications, 2023)
Where two headings read alike, the source gives them in different places.

Legend:
[1] = molecular target: ATRIP peptide (Homo sapiens) (UniProt Q8WXE1); conditions: cited from earlier work
[2] = molecular target: ATRIP peptide (Homo sapiens) (UniProt Q8WXE1); conditions: cited from earlier work; remark: listed apart in the source
[3] = molecular target: T1, TbRPA1 DBD-AB (Trypanosoma brucei) (UniProt Q384B5); experiment: MST; conditions: 20 mM Tris pH 7.5, 10 mM NaCl, 10 mM MgCl2, 2 mM DTT, 10% glycerol, 0.1 mg/ml BSA, 15 min, room temperature; EMSA 2 nM probe (gel at 4 C), MST 10 nM probe
T1 sequence: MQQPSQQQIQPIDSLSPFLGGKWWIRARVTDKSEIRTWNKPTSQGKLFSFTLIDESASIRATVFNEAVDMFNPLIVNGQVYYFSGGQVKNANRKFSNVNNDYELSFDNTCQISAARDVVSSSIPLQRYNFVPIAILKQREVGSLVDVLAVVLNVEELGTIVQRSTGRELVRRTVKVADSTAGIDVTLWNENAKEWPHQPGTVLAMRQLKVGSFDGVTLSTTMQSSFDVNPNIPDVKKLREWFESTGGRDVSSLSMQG

[4] = molecular target: TbRPA complex: 6xHis-RPA1;TbRPA2;TbRPA3 (Trypanosoma brucei;Trypanosoma brucei;Trypanosoma brucei) (UniProt Q384B5); experiment: MST; conditions: 20 mM Tris pH 7.5, 10 mM NaCl, 10 mM MgCl2, 2 mM DTT, 10% glycerol, 0.1 mg/ml BSA, 15 min, room temperature, EMSA 2 nM probe (gel at 4 C), MST 10 nM probe

Chain of ATRIP peptide (Homo sapiens) (Q8WXE1 whole entry): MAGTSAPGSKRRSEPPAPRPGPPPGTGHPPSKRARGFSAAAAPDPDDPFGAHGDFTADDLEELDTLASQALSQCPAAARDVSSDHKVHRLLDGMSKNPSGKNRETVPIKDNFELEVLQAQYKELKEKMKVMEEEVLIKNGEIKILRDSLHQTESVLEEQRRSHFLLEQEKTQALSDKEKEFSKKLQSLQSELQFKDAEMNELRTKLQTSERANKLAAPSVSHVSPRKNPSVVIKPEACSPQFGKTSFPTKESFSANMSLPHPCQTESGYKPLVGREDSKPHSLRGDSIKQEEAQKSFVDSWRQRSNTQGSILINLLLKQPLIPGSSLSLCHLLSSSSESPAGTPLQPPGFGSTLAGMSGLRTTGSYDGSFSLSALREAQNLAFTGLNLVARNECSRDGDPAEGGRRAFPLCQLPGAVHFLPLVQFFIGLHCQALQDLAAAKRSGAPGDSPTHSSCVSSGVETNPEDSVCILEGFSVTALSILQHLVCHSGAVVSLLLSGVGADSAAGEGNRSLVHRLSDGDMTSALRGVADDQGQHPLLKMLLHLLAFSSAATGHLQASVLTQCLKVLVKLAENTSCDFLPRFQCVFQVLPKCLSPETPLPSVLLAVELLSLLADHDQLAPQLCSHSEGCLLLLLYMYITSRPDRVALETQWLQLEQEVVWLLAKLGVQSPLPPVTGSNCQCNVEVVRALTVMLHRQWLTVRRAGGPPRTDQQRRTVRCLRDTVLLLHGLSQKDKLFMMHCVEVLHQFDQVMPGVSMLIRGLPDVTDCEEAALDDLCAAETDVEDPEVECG
Chain of RPA1 DBD-AB DBD-AB (P27694 181-422): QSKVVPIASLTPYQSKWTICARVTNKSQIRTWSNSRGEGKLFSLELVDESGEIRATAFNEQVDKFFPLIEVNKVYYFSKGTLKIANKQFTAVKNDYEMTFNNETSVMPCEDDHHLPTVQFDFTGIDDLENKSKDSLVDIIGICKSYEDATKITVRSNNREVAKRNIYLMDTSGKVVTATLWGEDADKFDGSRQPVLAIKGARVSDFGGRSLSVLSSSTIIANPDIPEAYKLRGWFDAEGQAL
Chain of RPA1 DBD-F DBD-F (P27694 1-120): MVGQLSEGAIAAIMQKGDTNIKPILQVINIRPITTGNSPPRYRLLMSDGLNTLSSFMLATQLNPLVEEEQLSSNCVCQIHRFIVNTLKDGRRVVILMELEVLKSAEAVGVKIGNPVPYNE

RPA1 DBD-AB DBD-AB (from UniProt P27694)
Kd [1]: 12000 nM

RPA1 DBD-F DBD-F (from UniProt P27694)
Kd [2]: 7400 nM

TTTTTTTTTTTT [dT12]
Kd [3]: 60.5 nM

TTTTTTTTTTTTTTTTTTTT [dT20]
Kd ([4]; 17.2 nM in peer review file): 17 nM

TTTTTTTTTTTTTTTTTTTTTTTTTTTTTTTT [dT32]
Kd [4]: 13.2 nM | Kd ([4]; second measurement, with S105T / length series): 15.5 nM
